Source: patent publication US20210155689A1 (SHANGHAI PHARMAEXPLORER, published 2021)
Where a chain is given by its changes, count along the chain named.

Assays:
[1] = target: T1, human LAG-3 ECD (antigen protein of the affinity test) (human, UniProt P18627 23-450); assay: SPR, CM5 chip, antibody captured by anti-human Fc IgG, antigen in flow, 1:1 fit
T1 sequence: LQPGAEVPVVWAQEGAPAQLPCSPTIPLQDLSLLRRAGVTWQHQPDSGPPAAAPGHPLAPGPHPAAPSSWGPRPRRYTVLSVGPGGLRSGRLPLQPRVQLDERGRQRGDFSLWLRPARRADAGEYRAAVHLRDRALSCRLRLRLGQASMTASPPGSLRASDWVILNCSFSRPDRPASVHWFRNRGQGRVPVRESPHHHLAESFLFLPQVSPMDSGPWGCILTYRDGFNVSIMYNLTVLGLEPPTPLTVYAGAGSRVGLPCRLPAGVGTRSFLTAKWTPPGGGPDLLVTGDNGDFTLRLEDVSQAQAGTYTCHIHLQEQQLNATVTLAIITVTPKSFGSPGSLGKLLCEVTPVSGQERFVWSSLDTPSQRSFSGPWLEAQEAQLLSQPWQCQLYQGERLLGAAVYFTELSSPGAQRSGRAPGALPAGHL
Protocol: First, anti-human Fc IgG was immobilized on the surface of the CM5 chip to 6000-10000 RU by amino coupling method, with FC1 as the reference channel. The coupling process was as follows: a freshly prepared 1:1 mixture of 50 mM NHS and 200 mM EDC was activated for 7 minutes, then injected with 10-50 ug/ml anti-human Fc IgG diluted in 10 mM sodium acetate ph5.0 buffer. The remaining activated sites were blocked with 1M ethanolamine. Then, HBS-EP+ buffer was used to dilute the antibody to be tested to 5 ug/ml (adjustable according to the capture level) and the antibodies were captured on the chip at a flow rate of 10 ul/min to obtain a response value of about 100˜300 RU. Then the antigen protein was diluted to 100 nM (the highest concentration was tentatively 100 nM), and flew through the chip surface at a flow rate of 30 ul/min. If enough signal value was obtained, the antigen-protein was diluted by several concentration gradients, and flew through the chip surface respectively. At the end of each cycle, the chip surface was regenerated with 10 mM Glycine at pH 1.5. The kinetic rate constant needed to be subtracted from the blank control, and the data was fitted with the global fit analysis method 1:1 combination model. The dissociation equilibrium rate constant (KD) was calculated according to the following formula: KD=kd/ka.

[2] = target: T2, human LAG-3 on cells (HEK293-hLAG-3 stable cell line) (human, UniProt P18627 23-525); assay: FACS, HEK293-hLAG-3, antibody 0.064 nM
T2 sequence: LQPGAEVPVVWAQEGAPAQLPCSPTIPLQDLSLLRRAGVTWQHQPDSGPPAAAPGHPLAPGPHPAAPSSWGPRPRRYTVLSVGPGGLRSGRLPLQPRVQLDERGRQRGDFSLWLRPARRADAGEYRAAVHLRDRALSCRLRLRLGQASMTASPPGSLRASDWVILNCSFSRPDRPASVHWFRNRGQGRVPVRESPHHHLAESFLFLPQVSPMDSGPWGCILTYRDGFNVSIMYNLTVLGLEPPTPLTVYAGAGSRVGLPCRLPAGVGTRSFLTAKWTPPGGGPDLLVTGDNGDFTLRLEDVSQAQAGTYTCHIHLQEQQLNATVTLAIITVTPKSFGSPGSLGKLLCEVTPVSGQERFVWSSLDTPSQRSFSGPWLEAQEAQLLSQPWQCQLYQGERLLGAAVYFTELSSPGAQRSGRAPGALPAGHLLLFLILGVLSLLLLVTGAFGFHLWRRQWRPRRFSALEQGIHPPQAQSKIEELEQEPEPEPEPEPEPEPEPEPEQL
Description: (§1) A. The binding of antibodies to LAG-3 expressing cells was detected by Flow cytometry (FACS), wherein the method was according to that of Example 5.

[3] = target: T2, human LAG-3 on cells (HEK293-hLAG-3 …); assay: FACS, HEK293-hLAG-3, antibody 8 nM
Description: as §1

[4] = target: T2, human LAG-3 on cells (HEK293-hLAG-3 …); assay: FACS, HEK293-hLAG-3, antibody 1.6 nM
[5] = target: T2, human LAG-3 on cells (HEK293-hLAG-3 …); assay: FACS, HEK293-hLAG-3, antibody 0 nM
[6] = target: T2, human LAG-3 on cells (HEK293-hLAG-3 …); assay: FACS, HEK293-hLAG-3, antibody 40 nM
Description: as §1

[7] = target: T2, human LAG-3 on cells (HEK293-hLAG-3 …); assay: FACS, HEK293-hLAG-3, antibody 0.32 nM
Description: as §1

[8] = target: T2, human LAG-3 on cells (HEK293-hLAG-3 …); assay: FACS, HEK293-hLAG-3, antibody 0.013 nM
Description: as §1

B1: 405B8H3-2 humanized antibody (antibody, V domains shown)
VH: QVQLVQSGAEVKKPGASVKVSCKASGYTFTDYEMHWVRQAPGQGLEWMGATDPETGNSAYNQKFKGRVTMTADKSTSTVYMELSSLRSEDTAVYYCISTGWNDWGQGTTVTVSS
VL: DIQMTQSPSSLSASVGDRVTITCKASQDINSYLSWFQQKPGKAPKSLIYRADRLLDGVPSRFSGSGSGTDFTLTISSLQPEDFATYYCLQYDEFPYTFGQGTKLEIK
[1]
  Kd: 1.68 nM
  koff: 0.000184 s⁻¹
  kon: 110000 M⁻¹ s⁻¹
[2]
  Mean fluorescence intensity: 27
[3]
  Mean fluorescence intensity: 245
[4]
  Mean fluorescence intensity: 188
[5]
  Mean fluorescence intensity: 4
[6]
  Mean fluorescence intensity: 272
[7]
  Mean fluorescence intensity: 82
[8]
  Mean fluorescence intensity: 11

B2: 405B8H3-6 humanized antibody (antibody, V domains shown)
VH: B1 VH
VL: B1 VL with T69Q, F71Y
[1]
  Kd: 2.04 nM
  koff: 0.000193 s⁻¹
  kon: 94900 M⁻¹ s⁻¹
[2]
  Mean fluorescence intensity: 21
[3]
  Mean fluorescence intensity: 242
[4]
  Mean fluorescence intensity: 179
[5]
  Mean fluorescence intensity: 4
[6]
  Mean fluorescence intensity: 254
[7]
  Mean fluorescence intensity: 66
[8]
  Mean fluorescence intensity: 9

B3: 405B8H3-4 humanized antibody (antibody, V domains shown)
VH: B1 VH with R38K, M48I, R67K, V68A, V79A
VL: B1 VL
[2]
  Mean fluorescence intensity: 23
[3]
  Mean fluorescence intensity: 217
[4]
  Mean fluorescence intensity: 151
[5]
  Mean fluorescence intensity: 4
[6]
  Mean fluorescence intensity: 251
[7]
  Mean fluorescence intensity: 63
[8]
  Mean fluorescence intensity: 10

B4: 405B8H3-5 humanized antibody (antibody, V domains shown)
VH: B1 VH with A72R, K74T
VL: B1 VL with T69Q, F71Y
[2]
  Mean fluorescence intensity: 21
[3]
  Mean fluorescence intensity: 243
[4]
  Mean fluorescence intensity: 174
[5]
  Mean fluorescence intensity: 4
[6]
  Mean fluorescence intensity: 257
[7]
  Mean fluorescence intensity: 62
[8]
  Mean fluorescence intensity: 9

B5: 405B8H3-7 humanized antibody (antibody, V domains shown)
VH: B1 VH with M48I, V68A, V79A
VL: B1 VL with T69Q, F71Y
[1]
  Kd: 3.28 nM
  koff: 0.000316 s⁻¹
  kon: 96400 M⁻¹ s⁻¹
[2]
  Mean fluorescence intensity: 21
[3]
  Mean fluorescence intensity: 230
[4]
  Mean fluorescence intensity: 163
[5]
  Mean fluorescence intensity: 4
[6]
  Mean fluorescence intensity: 252
[7]
  Mean fluorescence intensity: 62
[8]
  Mean fluorescence intensity: 9

B6: 405B8H3-11 humanized antibody (antibody, V domains shown)
VH: B1 VH with M48I, V68A, V79A
VL: B1 VL with Q3K, A43S, T69Q, F71Y
[2]
  Mean fluorescence intensity: 25
[3]
  Mean fluorescence intensity: 220
[4]
  Mean fluorescence intensity: 164
[5]
  Mean fluorescence intensity: 4
[6]
  Mean fluorescence intensity: 230
[7]
  Mean fluorescence intensity: 71
[8]
  Mean fluorescence intensity: 11

B7: 405B8H3-9 humanized antibody (antibody, V domains shown)
VH: B1 VH with A72R, K74T
VL: B1 VL with Q3K, A43S, T69Q, F71Y
[2]
  Mean fluorescence intensity: 43
[3]
  Mean fluorescence intensity: 246
[4]
  Mean fluorescence intensity: 218
[5]
  Mean fluorescence intensity: 4
[6]
  Mean fluorescence intensity: 249
[7]
  Mean fluorescence intensity: 132
[8]
  Mean fluorescence intensity: 14

B8: 405B8H3-12 humanized antibody (antibody, V domains shown)
VH: B1 VH with R38K, M48I, R67K, V68A, V79A
VL: B1 VL with Q3K, A43S, T69Q, F71Y
[2]
  Mean fluorescence intensity: 23
[3]
  Mean fluorescence intensity: 207
[4]
  Mean fluorescence intensity: 142
[5]
  Mean fluorescence intensity: 4
[6]
  Mean fluorescence intensity: 229
[7]
  Mean fluorescence intensity: 61
[8]
  Mean fluorescence intensity: 11

B9: 405B8H3-1 humanized antibody (antibody, V domains shown)
VH: B1 VH with A72R, K74T
VL: B1 VL
[1]
  Kd: 2.54 nM
  koff: 0.000254 s⁻¹
  kon: 100000 M⁻¹ s⁻¹
[2]
  Mean fluorescence intensity: 26
[3]
  Mean fluorescence intensity: 244
[4]
  Mean fluorescence intensity: 178
[5]
  Mean fluorescence intensity: 4
[6]
  Mean fluorescence intensity: 257
[7]
  Mean fluorescence intensity: 73
[8]
  Mean fluorescence intensity: 11

B10: 405B8H3-10 humanized antibody (antibody, V domains shown)
VH: B1 VH
VL: B1 VL with Q3K, A43S, T69Q, F71Y
[2]
  Mean fluorescence intensity: 25
[3]
  Mean fluorescence intensity: 229
[4]
  Mean fluorescence intensity: 184
[5]
  Mean fluorescence intensity: 4
[6]
  Mean fluorescence intensity: 238
[7]
  Mean fluorescence intensity: 82
[8]
  Mean fluorescence intensity: 11

B11: 405B8H3-3 humanized antibody (antibody, V domains shown)
VH: B1 VH with M48I, V68A, V79A
VL: B1 VL
[2]
  Mean fluorescence intensity: 26
[3]
  Mean fluorescence intensity: 230
[4]
  Mean fluorescence intensity: 173
[5]
  Mean fluorescence intensity: 4
[6]
  Mean fluorescence intensity: 253
[7]
  Mean fluorescence intensity: 74
[8]
  Mean fluorescence intensity: 11

B12: 405B8H3-8 humanized antibody (antibody, V domains shown)
VH: B1 VH with R38K, M48I, R67K, V68A, V79A
VL: B1 VL with T69Q, F71Y
[2]
  Mean fluorescence intensity: 19
[3]
  Mean fluorescence intensity: 213
[4]
  Mean fluorescence intensity: 134
[5]
  Mean fluorescence intensity: 4
[6]
  Mean fluorescence intensity: 242
[7]
  Mean fluorescence intensity: 52
[8]
  Mean fluorescence intensity: 8
